Patent US20210238260

Assays:
[1] = molecular target: Factor X, P00742
[2] = molecular target: Factor X (FX), P00742
Sequence of Factor X (FX), P00742 (P00742 whole entry, looked up): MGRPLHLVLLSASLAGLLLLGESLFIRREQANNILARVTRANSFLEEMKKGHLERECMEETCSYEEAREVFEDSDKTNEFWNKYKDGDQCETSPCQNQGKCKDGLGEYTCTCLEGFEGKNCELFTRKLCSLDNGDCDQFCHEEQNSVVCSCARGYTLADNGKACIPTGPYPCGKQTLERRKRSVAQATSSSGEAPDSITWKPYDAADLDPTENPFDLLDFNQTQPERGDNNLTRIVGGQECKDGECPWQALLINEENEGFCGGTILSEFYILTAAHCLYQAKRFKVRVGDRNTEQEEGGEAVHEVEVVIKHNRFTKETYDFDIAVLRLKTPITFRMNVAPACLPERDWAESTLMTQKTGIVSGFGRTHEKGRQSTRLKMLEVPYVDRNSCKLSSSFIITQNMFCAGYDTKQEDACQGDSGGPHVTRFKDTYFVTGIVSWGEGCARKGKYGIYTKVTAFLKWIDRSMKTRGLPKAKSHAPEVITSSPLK

Sequence of Factor X, P00742 (P00742 whole entry, looked up): as above

B1: FIXa-Y155F/R338E/T343R/R403E (protein)
chain 1: YNSGKLEEFVQGNLERECMEEKCSFEEAREVFENTERTTEFWKQYVDGDQCESNPCLNGGSCKDDINSYECWCPFGFEGKNCELDVTCNIKNGRCEQFCKNSADNKVVCSCTEGYRLAENQKSCEPAVPFPCGRVSVSQTSKLTR
chain 2: VVGGEDAKPGQFPWQVVLNGKVDAFCGGSIVNEKWIVTAAHCVETGVKITVVAGEHNIEETEHTEQKRNVIRIIPHHNYNAAINKYNHDIALLELDEPLVLNSYVTPICIADKEYTNIFLKFGSGYVSGWGRVFHKGRSALVLQYLRVPLVDRATCLESTKFRIYNNMFCAGFHEGGRDSCQGDSGGPHVTEVEGTSFLTGIISWGEECAMKGKYGIYTKVSEYVNWIKEKTKLT
% of WT kcat/KM [1]: 429% | kcat [1]: 5.2 s⁻¹ | kcat/KM [1]: 2e+08 M⁻¹ s⁻¹ | KM [2]: 0.0289 µM

B2: FIXa-R338E/T343R/R403E (protein)
chain 1: YNSGKLEEFVQGNLERECMEEKCSFEEAREVFENTERTTEFWKQYVDGDQCESNPCLNGGSCKDDINSYECWCPFGFEGKNCELDVTCNIKNGRCEQFCKNSADNKVVCSCTEGYRLAENQKSCEPAVPFPCGRVSVSQTSKLTR
chain 2: VVGGEDAKPGQFPWQVVLNGKVDAFCGGSIVNEKWIVTAAHCVETGVKITVVAGEHNIEETEHTEQKRNVIRIIPHHNYNAAINKYNHDIALLELDEPLVLNSYVTPICIADKEYTNIFLKFGSGYVSGWGRVFHKGRSALVLQYLRVPLVDRATCLESTKFRIYNNMFCAGFHEGGRDSCQGDSGGPHVTEVEGTSFLTGIISWGEECAMKGKYGIYTKVSEYVNWIKEKTKLT
% of WT kcat/KM [1]: 663% | kcat [1]: 6.9 s⁻¹ | kcat/KM [1]: 3.1e+08 M⁻¹ s⁻¹ | KM [2]: 0.0235 µM

B3: FIXa-Y155F/R338E/T343R/R403E/E410S (protein)
chain 1: YNSGKLEEFVQGNLERECMEEKCSFEEAREVFENTERTTEFWKQYVDGDQCESNPCLNGGSCKDDINSYECWCPFGFEGKNCELDVTCNIKNGRCEQFCKNSADNKVVCSCTEGYRLAENQKSCEPAVPFPCGRVSVSQTSKLTR
chain 2: VVGGEDAKPGQFPWQVVLNGKVDAFCGGSIVNEKWIVTAAHCVETGVKITVVAGEHNIEETEHTEQKRNVIRIIPHHNYNAAINKYNHDIALLELDEPLVLNSYVTPICIADKEYTNIFLKFGSGYVSGWGRVFHKGRSALVLQYLRVPLVDRATCLESTKFRIYNNMFCAGFHEGGRDSCQGDSGGPHVTEVEGTSFLTGIISWGEECAMKGKYGIYTKVSEYVNWIKSKTKLT
% of WT kcat/KM [1]: 629% | kcat [1]: 6.8 s⁻¹ | kcat/KM [1]: 2.9e+08 M⁻¹ s⁻¹ | KM [2]: 0.0239 µM

B4: FIXa-D104N/K106S/Y155F/R318Y/R338E/R403E/E410N (mature FIX numbering) (protein)
chain 1: YNSGKLEEFVQGNLERECMEEKCSFEEAREVFENTERTTEFWKQYVDGDQCESNPCLNGGSCKDDINSYECWCPFGFEGKNCELDVTCNIKNGRCEQFCKNSANNSVVCSCTEGYRLAENQKSCEPAVPFPCGRVSVSQTSKLTR
chain 2: VVGGEDAKPGQFPWQVVLNGKVDAFCGGSIVNEKWIVTAAHCVETGVKITVVAGEHNIEETEHTEQKRNVIRIIPHHNYNAAINKYNHDIALLELDEPLVLNSYVTPICIADKEYTNIFLKFGSGYVSGWGRVFHKGYSALVLQYLRVPLVDRATCLESTKFTIYNNMFCAGFHEGGRDSCQGDSGGPHVTEVEGTSFLTGIISWGEECAMKGKYGIYTKVSEYVNWIKNKTKLT
% of WT kcat/KM [1]: 394% | kcat/KM [1]: 1.8e+08 M⁻¹ s⁻¹

B5: FIXa-D203N/F205T/R318Y/E410N (mature FIX numbering) (protein)
chain 1: YNSGKLEEFVQGNLERECMEEKCSFEEAREVFENTERTTEFWKQYVDGDQCESNPCLNGGSCKDDINSYECWCPFGFEGKNCELDVTCNIKNGRCEQFCKNSADNKVVCSCTEGYRLAENQKSCEPAVPFPCGRVSVSQTSKLTR
chain 2: VVGGEDAKPGQFPWQVVLNGKVNATCGGSIVNEKWIVTAAHCVETGVKITVVAGEHNIEETEHTEQKRNVIRIIPHHNYNAAINKYNHDIALLELDEPLVLNSYVTPICIADKEYTNIFLKFGSGYVSGWGRVFHKGYSALVLQYLRVPLVDRATCLRSTKFTIYNNMFCAGFHEGGRDSCQGDSGGPHVTEVEGTSFLTGIISWGEECAMKGKYGIYTKVSRYVNWIKNKTKLT
% of WT kcat/KM [1]: 88% | kcat/KM [1]: 3.9e+07 M⁻¹ s⁻¹
